{"source": "patent EP2970434B1", "about": "(The Regents of the University of California, dated 2018)", "key": {"[1]": {"target": "Glu-plasminogen (Homo sapiens (Human)) (UniProt P00747)", "sequence (P00747 20-810 limits assumed)": "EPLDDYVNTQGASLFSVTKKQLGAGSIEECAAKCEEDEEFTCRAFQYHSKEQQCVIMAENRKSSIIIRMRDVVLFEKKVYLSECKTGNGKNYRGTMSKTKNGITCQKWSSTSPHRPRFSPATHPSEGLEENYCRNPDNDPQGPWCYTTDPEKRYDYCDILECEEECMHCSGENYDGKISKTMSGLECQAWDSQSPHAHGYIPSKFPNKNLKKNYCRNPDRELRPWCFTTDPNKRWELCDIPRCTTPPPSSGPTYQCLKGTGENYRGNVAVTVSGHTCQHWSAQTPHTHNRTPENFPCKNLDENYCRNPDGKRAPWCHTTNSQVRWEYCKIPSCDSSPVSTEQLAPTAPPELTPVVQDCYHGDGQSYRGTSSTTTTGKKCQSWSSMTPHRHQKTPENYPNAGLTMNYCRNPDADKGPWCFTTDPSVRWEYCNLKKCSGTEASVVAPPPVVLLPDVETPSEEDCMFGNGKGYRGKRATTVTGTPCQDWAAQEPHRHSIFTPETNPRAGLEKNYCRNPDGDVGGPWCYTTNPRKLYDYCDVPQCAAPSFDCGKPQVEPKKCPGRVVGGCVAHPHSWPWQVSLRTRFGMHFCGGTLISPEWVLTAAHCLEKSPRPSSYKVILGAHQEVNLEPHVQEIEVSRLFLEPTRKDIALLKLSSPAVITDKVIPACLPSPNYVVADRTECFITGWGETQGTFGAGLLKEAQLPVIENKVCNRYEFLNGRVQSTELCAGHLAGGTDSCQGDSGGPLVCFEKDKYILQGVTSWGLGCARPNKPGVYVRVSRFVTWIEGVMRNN", "assay": "competition of Glu-Plg (2 µM) binding to PMA-stimulated U937 cells by µ-plasmin-KD1L17R-KT complex, read by plasmin generation; Kd from IC50 by Cheng-Prusoff"}, "human plasmin [2]": {"target": "T1, human plasmin (human, UniProt P00747 97-810, limits assumed)", "T1 sequence (P00747 97-810 limits assumed)": "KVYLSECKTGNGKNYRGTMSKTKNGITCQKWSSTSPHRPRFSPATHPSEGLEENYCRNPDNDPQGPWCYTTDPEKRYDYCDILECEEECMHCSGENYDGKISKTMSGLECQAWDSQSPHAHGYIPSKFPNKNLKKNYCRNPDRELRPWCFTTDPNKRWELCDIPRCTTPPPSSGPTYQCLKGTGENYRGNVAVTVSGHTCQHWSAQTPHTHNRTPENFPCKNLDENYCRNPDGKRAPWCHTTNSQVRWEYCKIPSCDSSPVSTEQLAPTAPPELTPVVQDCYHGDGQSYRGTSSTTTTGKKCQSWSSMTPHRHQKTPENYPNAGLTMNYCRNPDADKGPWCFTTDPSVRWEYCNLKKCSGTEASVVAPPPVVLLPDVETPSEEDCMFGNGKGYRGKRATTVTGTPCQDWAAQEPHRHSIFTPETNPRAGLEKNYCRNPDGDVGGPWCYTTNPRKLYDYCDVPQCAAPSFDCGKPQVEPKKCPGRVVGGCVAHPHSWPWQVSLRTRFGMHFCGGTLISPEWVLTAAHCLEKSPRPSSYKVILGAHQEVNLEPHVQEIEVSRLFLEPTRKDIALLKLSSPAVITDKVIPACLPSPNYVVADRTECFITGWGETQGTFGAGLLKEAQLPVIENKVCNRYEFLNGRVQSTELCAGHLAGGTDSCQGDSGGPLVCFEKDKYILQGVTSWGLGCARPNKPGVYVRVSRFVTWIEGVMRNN", "assay": "cell-based or functional assay"}, "human plasmin [3]": {"target": "T1, human plasmin", "assay": "plasmin amidolytic activity inhibition, S-2251 substrate"}, "[4]": {"target": "T2, active site-blocked human plasmin (human, UniProt P00747 97-810, limits assumed, active site blocked with a chloromethylketone inhibitor (e.g., D-Val-Phe-Lys chloromethylketone dihydrochloride))", "T2 construct": "also called immobilized plasmin", "T2 sequence (P00747 97-810 limits assumed)": "as above", "assay": "SPR (BiaCore), active site-blocked plasmin on CM5 chip, polypeptide as analyte at 1-10 µM"}, "[5]": {"target": "T3, factor VIIa-tissue factor (soluble human tissue factor 100 nM and factor VIIa 50 nM) (human), P08709", "T3 chain 1": "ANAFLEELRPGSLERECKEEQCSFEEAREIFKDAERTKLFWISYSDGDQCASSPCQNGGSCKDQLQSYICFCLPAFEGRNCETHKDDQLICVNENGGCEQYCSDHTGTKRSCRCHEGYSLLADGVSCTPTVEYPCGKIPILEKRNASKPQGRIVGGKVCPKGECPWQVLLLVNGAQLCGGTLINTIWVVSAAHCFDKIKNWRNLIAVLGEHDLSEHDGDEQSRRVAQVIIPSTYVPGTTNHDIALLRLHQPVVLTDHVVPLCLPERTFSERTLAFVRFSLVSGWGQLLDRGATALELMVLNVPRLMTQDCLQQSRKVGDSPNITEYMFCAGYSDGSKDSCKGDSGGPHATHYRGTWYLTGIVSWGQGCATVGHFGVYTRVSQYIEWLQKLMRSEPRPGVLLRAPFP", "T3 chain 2": "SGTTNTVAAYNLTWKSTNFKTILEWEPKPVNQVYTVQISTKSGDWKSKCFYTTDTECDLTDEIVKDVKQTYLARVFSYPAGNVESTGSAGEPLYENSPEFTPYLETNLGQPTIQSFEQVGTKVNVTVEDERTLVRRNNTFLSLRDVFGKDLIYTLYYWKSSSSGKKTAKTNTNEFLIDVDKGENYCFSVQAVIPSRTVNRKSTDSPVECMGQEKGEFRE", "assay": "factor VIIa-tissue factor amidolytic activity inhibition, S-2288 substrate", "conditions": "remark: other sources report otherwise"}, "[6]": {"target": "T4, tissue plasminogen activator (Alteplase) (UniProt P00750 36-562)", "T4 construct": "also called tPA", "T4 sequence (P00750 36-562 limits assumed)": "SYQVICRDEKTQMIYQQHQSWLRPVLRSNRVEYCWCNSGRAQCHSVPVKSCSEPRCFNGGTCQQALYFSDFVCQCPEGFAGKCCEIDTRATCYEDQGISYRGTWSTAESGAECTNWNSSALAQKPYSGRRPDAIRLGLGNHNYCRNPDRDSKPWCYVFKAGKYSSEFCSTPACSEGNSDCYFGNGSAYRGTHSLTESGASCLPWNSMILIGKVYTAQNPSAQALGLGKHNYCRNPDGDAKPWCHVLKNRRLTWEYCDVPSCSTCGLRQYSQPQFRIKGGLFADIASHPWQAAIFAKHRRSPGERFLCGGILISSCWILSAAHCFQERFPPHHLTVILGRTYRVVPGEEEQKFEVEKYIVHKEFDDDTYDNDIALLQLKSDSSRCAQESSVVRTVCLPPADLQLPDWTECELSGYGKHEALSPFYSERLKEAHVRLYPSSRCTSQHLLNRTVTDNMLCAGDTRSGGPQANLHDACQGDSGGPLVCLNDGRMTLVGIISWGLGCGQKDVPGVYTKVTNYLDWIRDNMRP", "assay": "SPR, lower end tied to tPA by paragraph 202"}, "Glu-plasminogen [7]": {"target": "T5, Glu-plasminogen (Homo sapiens (Human), UniProt P00747 20-810, Native glycoprotein; the glycans are not carried by the letters.)", "T5 construct": "also called Glu-Plg", "T5 sequence (P00747 20-810 limits assumed)": "as the sequence (P00747 20-810 limits assumed) above", "assay": "SPR, upper end tied to Glu-Plg by paragraph 202"}, "[8]": {"target": "T4, tissue plasminogen activator (Alteplase)", "assay": "SPR (Biacore T100, 25 °C), tPA on CM5 chip, 1:1 binding model"}, "Glu-plasminogen [9]": {"target": "T5, Glu-plasminogen", "assay": "SPR (Biacore T100, 25 °C), Glu-Plg on CM5 chip, 1:1 binding model"}, "human plasmin [10]": {"target": "T1, human plasmin", "assay": "plasmin amidolytic activity inhibition, S-2251 substrate, 3 nM plasmin, tight-binding equation"}, "[11]": {"target": "T2, active site-blocked human plasmin", "assay": "SPR (BiaCore), active site-blocked plasmin on CM5 chip, polypeptide as analyte at 1-12 µM"}}}
{"molecule": "µ-plasmin-KD1L17R-KT complex (from UniProt P00747 561-580; P00747 581-810)", "values": [{"measurement": "Kd", "setting": "[1]", "result": 300, "unit": "nM"}]}
{"molecule": "plasmin-inhibiting polypeptide comprising the amino acid sequence set forth in SEQ ID NO:5 (designed binder, Expressed in E. coli; also called 60A) NAEICLLPLDYGPCRARLLRYYYDRYTQSCRQFLYGGCEGNANNFYTWEACDDACWRIEK", "values": [{"measurement": "IC50 (nM), inhibition of plasmin activity (S2251 hydrolysis)", "setting": "human plasmin [2]", "result": 3.4, "unit": "nM"}, {"measurement": "Ki", "setting": "human plasmin [3]", "result": 2.36, "unit": "nM"}, {"measurement": "Kd", "setting": "[4]", "result": 130, "unit": "nM"}]}
{"molecule": "plasmin-inhibiting polypeptide comprising the amino acid sequence set forth in SEQ ID NO:3 (designed binder, Expressed in E. coli; also called DM; 60B) NAEICLLPLDTGPCRARLLRYYYDRYTQSCRQFLYGGCEGNANNFYTWEACDDACWRIEK", "values": [{"measurement": "IC50 (nM), inhibition of plasmin activity (S2251 hydrolysis)", "setting": "human plasmin [2]", "result": 1.8, "unit": "nM"}, {"measurement": "Ki", "setting": "human plasmin [3]", "result": 0.49, "unit": "nM"}, {"measurement": "Ki", "setting": "[5]", "result": 5.87, "unit": "µM"}, {"measurement": "Kd", "setting": "[4]", "result": 313, "unit": "nM"}]}
{"molecule": "KD1L17R-KT (designed binder, Both have C-terminal lysine; also called IIa cleaved KD1L17R-VT) GNNAEICLLPLDYGPCRARLLRYYYDRYTQSCRQFLYGGCEGNANNFYTWEACDDACWRIEKVPK", "values": [{"measurement": "Kd", "setting": "[6]", "result": "200 to 300", "unit": "nM"}, {"measurement": "Kd", "setting": "Glu-plasminogen [7]", "result": "200 to 300", "unit": "nM"}, {"measurement": "Kd", "setting": "[8]", "result": 210, "unit": "nM"}, {"measurement": "koff", "setting": "[8]", "result": 0.00019, "unit": "s⁻¹"}, {"measurement": "kon", "setting": "[8]", "result": 910, "unit": "M⁻¹ s⁻¹"}, {"measurement": "Kd", "setting": "Glu-plasminogen [9]", "result": 280, "unit": "nM"}, {"measurement": "koff", "setting": "Glu-plasminogen [9]", "result": 0.00031, "unit": "s⁻¹"}, {"measurement": "kon", "setting": "Glu-plasminogen [9]", "result": 1100, "unit": "M⁻¹ s⁻¹"}, {"measurement": "Ki", "setting": "human plasmin [10]", "result": 1, "unit": "nM"}]}
{"molecule": "plasmin-inhibiting polypeptide comprising the amino acid sequence set forth in SEQ ID NO:4 (designed binder) NAEICLLPLDTGPCRARLLRYYYDRYTQSCRQFLYGGCEGNANNFYTWEACDDACWRIEKVPK", "values": [{"measurement": "IC50 (nM), inhibition of plasmin activity (S2251 hydrolysis)", "setting": "human plasmin [2]", "result": 0.8, "unit": "nM"}]}
{"molecule": "plasmin-inhibiting polypeptide comprising the amino acid sequence set forth in SEQ ID NO:6 (designed binder, Purified recombinant polypeptide; also called 63-residue) NAEICLLPLDYGPCRARLLRYYYDRYTQSCRQFLYGGCEGNANNFYTWEACDDACWRIEKVPK", "values": [{"measurement": "IC50 (nM), inhibition of plasmin activity (S2251 hydrolysis)", "setting": "human plasmin [2]", "result": 1.8, "unit": "nM"}, {"measurement": "Kd", "setting": "[11]", "result": 290, "unit": "nM"}]}
